Assay results: patent US20170081411A1 (published 2017)
Substitutions are numbered along the chain they refer to. Names and notes keep the numbering of the source. Each block holds one binder with its values, some of them ahead of it.

What was measured:
[1] = target: T1, His-Avidin-FKBP (wild-type FKBP) (biotinylated (position not given)); test: AlphaLISA direct format: 30 nM biotinylated FKBP + 30 nM FLAG-FRB, everolimus titrated 1:3 from 600 nM (EC50 is of the everolimus titration)
T1 construct: His tag and biotin acceptor tag are part of the entry; also called biotinylated wild-type FKBP; biotinylated FKBP
Procedure: (§1) FRB mutations were also ranked in an alternative assay format. […] All dilutions were made in 1× AlphaLISA Immunoassay buffer (PerkinElmer). Anti-Flag acceptor beads (PerkinElmer) were added at 10 ug/ml final concentration and incubated for one hour at room temperature. Streptavidin donor beads (PerkinElmer), were then added at a final concentration of 40 ug/ml and the plate was protected from light and incubated for 30 minutes at room temperature. The plate was then read on the PerkinElmer EnVision Multiplate reader equipped with the Alpha Module using excitation of 680 nm and a 570 nm Emission filter.

[2] = target: T1, His-Avidin-FKBP (wild-type FKBP); test: AlphaLISA direct format, everolimus titrated, EC50 against wild type FRB
Procedure: as §1

T1 sequence (chain, as listed by the source limits assumed): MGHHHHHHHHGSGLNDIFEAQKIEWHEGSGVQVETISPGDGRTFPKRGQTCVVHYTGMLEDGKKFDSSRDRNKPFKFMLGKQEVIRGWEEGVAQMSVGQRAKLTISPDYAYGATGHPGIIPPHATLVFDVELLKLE

B1: His-FLAG-FRB (wild-type FRB) (other)
chain: MGHHHHHHHHGSDYKDDDDKGSASRILWHEMWHEGLEEASRLYFGERNVKGMFEVLEPLHAMMERGPQTLKETSFNQAYGRDLMEAQEWCRKYMKSGNVKDLTQAWDLYYHVFRRISKTS
notes: His and FLAG tags are part of the entry; also called wild type Flag-FRB
EC50 [1]: 3.9 nM

B4: His-FLAG-FRB E2032L (other)
chain: B1 chain with E37L
notes: The entry already carries the mutation and the tags; also called E2032L (FLAG tagged)
EC50 [1]: 2.15 nM

Further lines, results first:

fold improved against wild type FRB [2]: 3 fold | EC50 [1]: 1.44 nM
B2: His-FLAG-FRB T2098L (other)
chain: B1 chain with T103L
notes: The entry already carries the mutation and the tags; also called T2098L (FLAG tagged)

EC50 [1]: 2.46 nM
B3: His-FLAG-FRB E2032I (other)
chain: B1 chain with E37I
notes: The entry already carries the mutation and the tags; also called E2032I (FLAG tagged)
